These substances were tested against HLA-A*02:01 (Homo sapiens, UniProt P04439, D140Y/D185E/D98H/E176V/E277Q/G131W/G231S/I119V/I121R/I166T/I218V/L300P/L318F/N151K/N90K/P208A/P217A/Q86G/Q94H/R138H/R169H/T345S) (assay: MHC binding assay (UV-ligand exchange, beta2m ELISA, peptide exchange yield)). Settings: binding to HLA-A*02:01.
Excerpt: Candidate peptides for T cell based therapies according to the present invention were further tested for their MHC binding capacity (affinity). The individual peptide-MHC complexes were produced by UV-ligand exchange, where a UV-sensitive peptide is cleaved upon UV-irradiation, and exchanged with the peptide of interest as analyzed. Only peptide candidates that can effectively bind and stabilize the peptide-receptive MHC molecules prevent dissociation of the MHC complexes. To determine the yield of the exchange reaction, an ELISA was performed based on the detection of the light chain ([…]) of stabilized MHC complexes. The assay was performed as generally described in Rodenko et al. (Rodenko et al., 2006).
96 well MAXISorp plates (NUNC) were coated over night with 2 ug/ml streptavidin in PBS at room temperature, washed 4× and blocked for 1 h at 37° C. in 2% BSA containing blocking buffer. Refolded HLA-A*02:01/MLA-001 monomers served as standards, covering the range of 15-500 ng/ml. Peptide-MHC monomers of the UV-exchange reaction were diluted 100 fold in blocking buffer. Samples were incubated for 1 h at 37° C., washed four times, incubated with 2 ug/ml HRP conjugated anti-β2m for 1 h at 37° C., washed again and detected with TMB solution that is stopped with […]. Absorption was measured at 450 nm. Candidate peptides that show a high exchange yield (preferably higher than 50%, most preferred higher than 75%) are generally preferred for a generation and production of antibodies or fragments thereof, and/or T cell receptors or fragments thereof, as they show sufficient avidity to the MHC molecules and prevent dissociation of the MHC complexes.

Substance	Peptide exchange (MHC class I binding score, peptide exchange yield)
90 (GLLKPGLNVVL; listed as Homo sapiens) [compound 90]	“+++” (≥50 = +++)
91 (TVDVATPSV; listed as Homo sapiens) [compound 91]	“+++” (≥50 = +++)
92 (WIDDTSAFV; listed as Homo sapiens) [compound 92]	“+++” (≥50 = +++)
93 (SLQELRLLL; listed as Homo sapiens) [compound 93]	“++++” (≥75% = ++++)
94 (KSMDIVLTV; listed as Homo sapiens) [compound 94]	“+++” (≥50 = +++)
95 (AILDAHIEV; listed as Homo sapiens) [compound 95]	“++++” (≥75% = ++++)
96 (KLYSRLVYV; listed as Homo sapiens) [compound 96]	“++” (≥20% = ++)
97 (ALWWGVVTV; listed as Homo sapiens) [compound 97]	“++” (≥20% = ++)
98 (AMNGKSFSV; listed as Homo sapiens) [compound 98]	“++” (≥20% = ++)
99 (KLLEVDLDTV; listed as Homo sapiens) [compound 99]	“+++” (≥50 = +++)
100 (SLDDFLATA; listed as Homo sapiens) [compound 100]	“+++” (≥50 = +++)
101 (GLSEGHTFQV; listed as Homo sapiens) [compound 101]	“+++” (≥50 = +++)
102 (KILVSLIEV; listed as Homo sapiens) [compound 102]	“+++” (≥50 = +++)
103 (FLFGYPKRL; listed as Homo sapiens) [compound 103]	“++” (≥20% = ++)
104 (ILLTIKDDTIYL; listed as Homo sapiens) [compound 104]	“+++” (≥50 = +++)
105 (YALDLSTFL; listed as Homo sapiens) [compound 105]	“+++” (≥50 = +++)
106 (SLISEKILL; listed as Homo sapiens) [compound 106]	“+++” (≥50 = +++)
107 (ALLGGGPYML; listed as Homo sapiens) [compound 107]	“+++” (≥50 = +++)
108 (SLAELVPGVGGI; listed as Homo sapiens) [compound 108]	“+++” (≥50 = +++)
109 (ALDGDQMEL; listed as Homo sapiens) [compound 109]	“++” (≥20% = ++)
110 (LLGELPRLLLL; listed as Homo sapiens) [compound 110]	“+++” (≥50 = +++)

Substance	Peptide exchange (MHC class I binding score, peptide exchange yield)
112 (KLGQVLIYL; listed as Homo sapiens) [compound 112]	“++” (≥20% = ++)
113 (ILYDLQQNL; listed as Homo sapiens) [compound 113]	“++” (≥20% = ++)
114 (TAVGHALVL; listed as Homo sapiens) [compound 114]	“+” (≥10% = +)
115 (SLFDVSHML; listed as Homo sapiens) [compound 115]	“+++” (≥50 = +++)
116 (LVYQFVHPI; listed as Homo sapiens) [compound 116]	“++” (≥20% = ++)
117 (TLQPVDNSTISL; listed as Homo sapiens) [compound 117]	“++” (≥20% = ++)
118 (LLADLKTMV; listed as Homo sapiens) [compound 118]	“+++” (≥50 = +++)
119 (ILYQTVTGL; listed as Homo sapiens) [compound 119]	“++” (≥20% = ++)
120 (VLYEGVDEV; listed as Homo sapiens) [compound 120]	“++” (≥20% = ++)
121 (SLAPNIISQL; listed as Homo sapiens) [compound 121]	“+++” (≥50 = +++)
122 (SLMGMVLKL; listed as Homo sapiens) [compound 122]	“+++” (≥50 = +++)
125 (KLGDFGLLVEL; listed as Homo sapiens) [compound 125]	“++++” (≥75% = ++++)
126 (TLAKYLMEL; listed as Homo sapiens) [compound 126]	“+++” (≥50 = +++)
128 (MLDDRAYLV; listed as Homo sapiens) [compound 128]	“++” (≥20% = ++)
129 (VLIDVLKEL; listed as Homo sapiens) [compound 129]	“+++” (≥50 = +++)
130 (GLGGSQLIDTHL; listed as Homo sapiens) [compound 130]	“++” (≥20% = ++)
131 (KLLDVVHPA; listed as Homo sapiens) [compound 131]	“++” (≥20% = ++)
134 (GVAGGSILKGV; listed as Homo sapiens) [compound 134]	“++++” (≥75% = ++++)
135 (KLQEEIPVL; listed as Homo sapiens) [compound 135]	“++” (≥20% = ++)
137 (QLTEIKPLL; listed as Homo sapiens) [compound 137]	“+++” (≥50 = +++)
138 (KQFEGTVEI; listed as Homo sapiens) [compound 138]	“+++” (≥50 = +++)

Substance	Peptide exchange (MHC class I binding score, peptide exchange yield)
139 (VLLNEILEQV; listed as Homo sapiens) [compound 139]	“+++” (≥50 = +++)
140 (LLNEILEQV; listed as Homo sapiens) [compound 140]	“+++” (≥50 = +++)
143 (KLSDVWKEL; listed as Homo sapiens) [compound 143]	“+++” (≥50 = +++)
144 (LLNDRIWLA; listed as Homo sapiens) [compound 144]	“+++” (≥50 = +++)
145 (LLLEVVKQV; listed as Homo sapiens) [compound 145]	“+++” (≥50 = +++)
146 (ALSDETWGL; listed as Homo sapiens) [compound 146]	“++” (≥20% = ++)
147 (TLTELRAFL; listed as Homo sapiens) [compound 147]	“++++” (≥75% = ++++)
148 (RLLENMTEVV; listed as Homo sapiens) [compound 148]	“+++” (≥50 = +++)
149 (YQFDKVGILTL; listed as Homo sapiens) [compound 149]	“+++” (≥50 = +++)
151 (SAQGSDVSLTACKV; listed as Homo sapiens) [compound 151]	“+++” (≥50 = +++)
152 (KLLAVIHEL; listed as Homo sapiens) [compound 152]	“++” (≥20% = ++)
153 (ILFSEDSTKLFV; listed as Homo sapiens) [compound 153]	“+++” (≥50 = +++)
154 (KLPSETIFVGC; listed as Homo sapiens) [compound 154]	“+++” (≥50 = +++)
155 (RLLGEEVVRV; listed as Homo sapiens) [compound 155]	“+++” (≥50 = +++)
156 (SLMMTIINL; listed as Homo sapiens) [compound 156]	“++++” (≥75% = ++++)
157 (SLIERDLKL; listed as Homo sapiens) [compound 157]	“+++” (≥50 = +++)
158 (GLLDPSVFHV; listed as Homo sapiens) [compound 158]	“+++” (≥50 = +++)
159 (VLVDDDGIKVV; listed as Homo sapiens) [compound 159]	“++” (≥20% = ++)
160 (KLLEFDQLQL; listed as Homo sapiens) [compound 160]	“+++” (≥50 = +++)

From US10513547B2, “Peptides and combination of peptides and scaffolds thereof for use in immunotherapy against colorectal carcinoma (CRC) and other cancers” (Immatics Biotechnologies GmbH, priority 2015, dated 2019)
